Assay results: the supplement of paper PMC10724198

Assays:
Saccharomyces cerevisiae [1] = test: protein stability index of tFT-peptide fusion in wild type (PSI (0-1 scale)); higher = more stable (slower turnover); settings: genetic background: wild type
Experimental: (§1)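 MPS profiling in S. cerevisiae of two library types built from selected 12-aa C-degron peptides (IN1, IN2, LN1, LN3, VN2, R1-R5, W1-W3, Atg1 and Rpa12 C-termini): saturation mutagenesis libraries and C-terminal +1 capping libraries (13 aa). Each peptide is fused to the C-terminus of a sfGFP-mCherry timer, after a GGGS linker. Cells are FACS-sorted into 8 mCherry/sfGFP bins and sequenced. PSI runs from 0 (unstable) to 1 (stable), measured once in wild type and in the das1Δ or doa10Δ background.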

Saccharomyces cerevisiae [2] = test: protein stability index of tFT-peptide fusion in deletion strain of DAS1 (PSI (0-1 scale)); higher = more stable (slower turnover)
Experimental: as §1
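Wherever protein stability index of tFT-peptide fusion in deletion strain of DAS1 is given: PSI is a weighted mean of each variant's read distribution over the sorted stability bins, computed only for variants having over 10 reads in total.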
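Wherever protein stability index of tFT-peptide fusion in wild type is given: PSI derived as read-weighted mean over the 8 sorting bins, only variants exceeding 10 total reads kept, mCherry placed adjacent to the peptide and sfGFP distal.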

Sequence | protein stability index (Saccharomyces cerevisiae [1]) | protein stability index (Saccharomyces cerevisiae [2])
FVMRWTFRYWVN | 0.0377 | 0.272
ILIQPLPVQFLN | 0.093 | 0.59
ISLAASFWRVVG | 0.109 | 0.663
ISMRWTFRYWVN | 0.059 | 0.481
KIHKKGQKQKIN | 0.0466 | 0.494
KKHKDGQKQKIN | 0.0686 | 0.602
KKHKEGQKQKIN | 0.12 | 0.581
KKHKHGQKQKIN | 0.0725 | 0.637
KKHKKGFKQKIN | 0.0758 | 0.589
KKHKKGQDQKIN | 0.616 | 0.574
KKHKKGQKEKIN | 0.124 | 0.606
KKHKKGQKQGIN | 0.703 | 0.606
KKHKKGQKQKIA | 0.128 | 0.597
KKHKKGQKQKIND | 0.666 | 0.658
KKHKKGQKQKINH | 0.653 | 0.668
KKHKKGQKQKINW | 0.643 | 0.657
KKHKKGQPQKIN | 0.0925 | 0.6
KKHKKKQKQKIN | 0.0427 | 0.593
KKHKNGQKQKIN | 0.145 | 0.622
KKHKSGQKQKIN | 0.106 | 0.603
KKHYKGQKQKIN | 0.0621 | 0.618
KKRKKGQKQKIN | 0.111 | 0.571
KKYKKGQKQKIN | 0.0672 | 0.613
KLIQPLPVQFLN | 0.0526 | 0.574

Sequence | protein stability index (Saccharomyces cerevisiae [1]) | protein stability index (Saccharomyces cerevisiae [2])
KRWRVGLWRGAS | 0.443 | 0.681
LGVYLSCVACIN | 0.0766 | 0.166
LKDLRQKMNHQN | 0.192 | 0.671
LKIERQKMNHQN | 0.333 | 0.682
LKILEQKMNHQN | 0.473 | 0.66
LKILHQKMNHQN | 0.293 | 0.645
LKILLQKMNHQN | 0.249 | 0.678
LKILREKMNHQN | 0.183 | 0.678
LKILRQEMNHQN | 0.437 | 0.672
LKILRQKENHQN | 0.365 | 0.681
LKILRQKMHHQN | 0.231 | 0.706
LKILRQKMNDQN | 0.552 | 0.687
LKILRQKMNHNN | 0.239 | 0.688
LKILRQKMNHQA | 0.19 | 0.629
LKILRQKMNHQNF | 0.616 | 0.698
LKILRQKMNHQNH | 0.655 | 0.69
LKILRQKMNHQS | 0.23 | 0.68
LKILRQKMNHRN | 0.493 | 0.653
LKILRQKNNHQN | 0.425 | 0.687
LKILRQKSNHQN | 0.581 | 0.688
LKILRQMMNHQN | 0.176 | 0.692
LKILYQKMNHQN | 0.259 | 0.679
LKIVRQKMNHQN | 0.197 | 0.696
LVPYLSCVACIN | 0.182 | 0.366

Sequence | protein stability index (Saccharomyces cerevisiae [1]) | protein stability index (Saccharomyces cerevisiae [2])
LVRYLSCVACIN | 0.0691 | 0.316
LVVILSCVACIN | 0.0224 | 0.0419
LVVNLSCVACIN | 0.0111 | 0.172
LVVYESCVACIN | 0.343 | 0.402
LVVYISCVACIN | 0.0144 | 0.0366
LVVYKSCVACIN | 0.218 | 0.415
LVVYLECVACIN | 0.0187 | 0.0239
LVVYLGCVACIN | 0.135 | 0.192
LVVYLSCMACIN | 0.0207 | 0.0753
LVVYLSCPACIN | 0.469 | 0.513
LVVYLSCVACINS | 0.029 | 0.0599
LVVYLSCVACLN | 0.0163 | 0.0375
LVVYLSCVACVN | 0.0169 | 0.0193
LVVYLSCVAFIN | 0.0135 | 0.0206
LVVYLSCVAHIN | 0.0148 | 0.0209
LVVYLSMVACIN | 0.0159 | 0.0257
LVVYLSYVACIN | 0.097 | 0.142
LVVYMSCVACIN | 0.0151 | 0.0291
LVVYSSCVACIN | 0.0132 | 0.0458
LVWYLSCVACIN | 0.0133 | 0.0212
MSMRWTFRYWVN | 0.0515 | 0.536
MVVYLSCVACIN | 0.0181 | 0.0769
NKHKKGQKQKIN | 0.122 | 0.562
NSLAASFWRVVG | 0.147 | 0.679

Sequence | protein stability index (Saccharomyces cerevisiae [1]) | protein stability index (Saccharomyces cerevisiae [2])
PDFRNHLIKLLN | 0.112 | 0.619
PDKREHLIKLLN | 0.158 | 0.716
PDKRKHLIKLLN | 0.171 | 0.583
PDKRNHCIKLLN | 0.148 | 0.585
PDKRNHFIKLLN | 0.102 | 0.603
PDKRNHLIKILN | 0.137 | 0.663
PDKRNHLIKLAN | 0.367 | 0.579
PDKRNHLIKLCN | 0.22 | 0.583
PDKRNHLIKLDN | 0.602 | 0.613
PDKRNHLIKLFN | 0.346 | 0.551
PDKRNHLIKLLL | 0.332 | 0.615
PDKRNHLIKLLNM | 0.145 | 0.659
PDKRNHLIKLLNS | 0.117 | 0.669
PDKRNHLIKLLNW | 0.571 | 0.684
PDKRNHLIKLLR | 0.683 | 0.643
PDKRNHLIKLNN | 0.447 | 0.598
PDKRNHLIKLWN | 0.314 | 0.627
PDKRNHLILLLN | 0.114 | 0.635
PDKRNHLKKLLN | 0.101 | 0.616
PDKRPHLIKLLN | 0.0997 | 0.678
PDKYNHLIKLLN | 0.0777 | 0.59
PDMRNHLIKLLN | 0.0863 | 0.757
PDYRNHLIKLLN | 0.0727 | 0.607
PELAASFWRVVG | 0.2 | 0.694

Sequence | protein stability index (Saccharomyces cerevisiae [1]) | protein stability index (Saccharomyces cerevisiae [2])
PKHKKGQKQKIN | 0.0768 | 0.747
PSAAASFWRVVG | 0.174 | 0.678
PSHAASFWRVVG | 0.163 | 0.697
PSLAASFARVVG | 0.622 | 0.684
PSLAASFRRVVG | 0.665 | 0.656
PSLAASFWRPVG | 0.656 | 0.677
PSLAASFWRSVG | 0.168 | 0.699
PSLAASFWRVGG | 0.676 | 0.677
PSLAASFWRVVGH | 0.681 | 0.707
PSLAASFWRVVGL | 0.683 | 0.713
PSLAASFWRVVGP | 0.684 | 0.692
PSLAASFWRVVR | 0.688 | 0.685
PSLAASFWRVWG | 0.38 | 0.696
PSLAASFWYVVG | 0.655 | 0.708
PSLAASIWRVVG | 0.143 | 0.69
PSLAASSWRVVG | 0.167 | 0.694
PSLAESFWRVVG | 0.482 | 0.685
PSLALSFWRVVG | 0.183 | 0.669
PSLASSFWRVVG | 0.165 | 0.696
PSLAWSFWRVVG | 0.0943 | 0.724
PSLNASFWRVVG | 0.159 | 0.699
